For assay [1], the target named is full-length HA from isolate A/Vietnam/1194/2004 (H5N1TV) expressed on PER.C6 cells (influenza A virus A/Vietnam/1194/2004 (H5N1)) (UniProt Q80A26). Briefly: FACS on HA (H5N1TV)-expressing PER.C6 cells, IgG 0.1 µg/ml.
Assay [2] shares this target. Briefly: FACS on HA (H5N1TV)-expressing PER.C6 cells, IgG 10 µg/ml, separate experiment.
For assay [3] the target is unchanged. Briefly: FACS on HA (H5N1TV)-expressing PER.C6 cells, IgG 0.1 µg/ml, separate experiment.
The target is the same in assay [4]. The assay is described as follows: FACS on HA (H5N1TV)-expressing PER.C6 cells, IgG 1 µg/ml.
Assay [5] shares this target. The assay is described as follows: FACS on HA (H5N1TV)-expressing PER.C6 cells, IgG 1 µg/ml, separate experiment.
Assay [6] has the same target. The assay is described as follows: FACS on HA (H5N1TV)-expressing PER.C6 cells, IgG 10 µg/ml.
In assay [7] the target is recombinant HA, subtype H5 (A/Vietnam/1203/2004 (H5N1)) (influenza A virus A/Vietnam/1203/2004 (H5N1)) (UniProt Q80A26). Briefly: ELISA, IgG 5 µg/ml. Background: In an ELISA, binding on a coated surface is turned into a signal by an enzyme label.
Assay [8] addresses recombinant HA, subtype H1 (A/New Caledonia/20/99 (H1N1)) (influenza A virus A/New Caledonia/20/99 (H1N1)) (UniProt Q289M7). Briefly: ELISA, IgG 5 µg/ml.
The target of assay [9] is recombinant HA, subtype H9 (A/Hong Kong/1073/99 (H9N2)) (influenza A virus A/Hong Kong/1073/99 (H9N2)). Briefly: ELISA, IgG 5 µg/ml.
The target of assay [10] is recombinant HA, subtype H3 (A/Wyoming/3/2003(H3N2)) (influenza A virus A/Wyoming/3/2003 (H3N2)). Briefly: ELISA, IgG 5 µg/ml.
Assay [11] deals with recombinant HA, subtype H7 (A/Netherlands/219/03 (H7N7)) (influenza A virus A/Netherlands/219/03 (H7N7)). Briefly: ELISA, IgG 5 µg/ml.

For the substance CR3014 (antibody), the flow cytometry signal in [1] was determined as 6.21; in assay [2], 9.15; in [3] it was 10.5; in [4], 10; in [5] it was 7.95; in assay [6] it was 13.1. The OD 492nm in [7] stood at 0.09 OD 492nm; in assay [8], 0.08 OD 492nm; in assay [9], 0.16 OD 492nm; in [10], 0.07 OD 492nm; in assay [11] it was 0.17 OD 492nm.
As for CR6261 (antibody), the figures for the OD 492nm in assay [7], in [10] and in [11] were 1.44 OD 492nm, 0.07 OD 492nm and 0.31 OD 492nm, respectively.

The values above are taken from patent publication EP2450379B1.
